{
  "source": "the DeepSol protein solubility set",
  "data": [
    {"assay": "soluble on expression in E. coli; label from the status in PepcDB or PDB records", "values": [
      {"sequence": "MVRNLVIDITKKPTQNIPPTNEIIEEAITELNVDELLDRLFEKDESGEVITPSRIAKMLEEKAFEIYKEYEKQVREAYLSAGYSREKLEQSFQQARFSRGGKAFEIIFTKLLNKFGIRYEHDRVIKIYDYITEGEKPAFIIPSVRTFLNDPSSAILITVKRKVRERWREAVGEAQILRNKFGDEINFWFVGFDEEFTIYSAIAMLDNGIDRVYVIDGRYDSLIEEIKRISDPNFNEDKYIQKIRRFSDIFDDIIQFLNKHGNKKRGKQLTLV", "soluble on expression in E. coli": "soluble"},
      {"sequence": "MKLKSNNIYEKMNQYSVVGLSLAVIRDGKLDETAAFGTLESGTNRTVTIDSIFNSCSISKFITTILILTLSDLKIVHLDEDVNDRLTSWNIPTNLFTSQKKVTLRNLLSHQSGIIDPPNSFEHYLLAQGQPNMSELLAGKTLYCSVPIEVTYKPESEFHYSDANFCIIEILLEDITGKPFNLLLEESIFQPLQMKNSTIFSPEDIDKTDAFACGHNKDGTVTNEKYPFYPFAAASGIWTTPTDLSALVIEIIHSLQGKGKLKLSQKTVQDMISPQGCSKWTGLGVFLDDLNEDLQIYSLGWGVGFQCMMICYPYRGNGAIIMTNADLGVHQMEGIIGDVLKTLSL", "soluble on expression in E. coli": "not soluble"},
      {"sequence": "PAQDYRCQLSRNYGKGSGSFTNYYYDKATSSCKTFRYRGSGGNGNRFKTLEDCEATCVTAE", "soluble on expression in E. coli": "soluble"},
      {"sequence": "MAHHHHHHMALSSSGSAALGDRIARAAAAAPQWTAQQRCFRQLLKSLRGAYFHDRSKLFWARHRILVEFYKYSRVEEERDVLLLVGIGNEIATFVAEYMKVDVGAIMEHNKKIQSLPVAKAKRYREEYLLHEKQHESWCKQKIRLMMDRRPPPPYPFS", "soluble on expression in E. coli": "not soluble"},
      {"sequence": "ELLCPAGTLKSMRYAFAYGADAVYAGQPRYSLRVRNNDFDHAQLAEGIAEAHALGKRFYVVVNIAPHNAKLKTFLRDLEPVVAMGPDALIMSDPGLIMLVRQHFPQMPIHLSVQANAVNWAAVQFWRQQGLTRVILSRELSLEEIEEIRQQVPDMELEVFVHGALCMAYSGRCLLSGYINRRDPNQGTCTNACRWEYKAVEGREDELGNVVAREPTLGRGAPTEQVFLLEEGNRPGEPMAAFEDEHGTYIMNSKDLRAVQHVERLARIGVHSLKIEGRTKSHYYVARTAQVYRQAIDDAAAGKPFDRGLMDTLESLAHRGYTEGFLRRHVHDEYQNYQHGHSLSERQQFVGELTGERRDGLAEVEVKNRFQRGDSVELMTPRGNLSLRVEDLRNAAGEAIEVAPGNGHVVYLALPEGLDLCYALLMRDLQPGQDTRQPQAERSGGCAGK", "soluble on expression in E. coli": "not soluble"},
      {"sequence": "MGSDKIHHHHHHMEESPLSRAPSRGGVNFLNVARTYIPNTKVECHYTLPPGTMPSASDWIGIFKVEAACVRDYHTFVWSSVPESTTDGSPIHTSVQFQASYLPKPGAQLYQFRYVNRQGQVCGQSPPFQFREPRPMDELVTLEEADGGSDILLVVPKATVLQNQLDESQQERNDLMQLKLQLEGQVTELRSRVQELERALATARQEHTELMEQYKGISRSHGEITEERDILSRQQGDHVARILELEDDIQTISEKVLTKEVELDRLRDTVKALTREQEKLLGQLKEVQADKEQSEAELQVAQQENHHLNLDLKEAKSWQEEQSAQAQRLKDKVAQMKDTLGQAQQRVAELEPLKEQLRGAQELAASSQQKATLLGEELASAAAARDRTIAELHRSRLEVAEVNGRLAELGLHLKEEKCQWSKERAGLLQSVEAEKDKILKLSAEILRLEKAVQEERTQNQVFKTELAREKDSSLVQLSESKRELTELRSALRVLQKEKEQLQEEKQELLEYMRKLEARLEKVADEKWNEDATTEDEEAAVGLSCPAALTDSEDESPEDMRLPPYGLCERGDPGSSPAGPREASPLVVISQPAPISPHLSGPAEDSSSDSEAEDEKSVLMAAVQSGGEEANLLLPELGSAFYDMASGFTVGTLSETSTGGPATPTWKECPICKERFPAESDKDALEDHMDGHFFFSTQDPFTFE", "soluble on expression in E. coli": "not soluble"},
      {"sequence": "MRSKFFSFFTRASRPMKAIPPKIWFETQLKGSGLDKKFQIDELIETQSSVRVFANKKYLPDTETINEALTKVTAVNVSGDKSGYFQNGLPFPNEAGYFEKIPVGHPELLSPIERLTGSKKIVSSHSLVTASGGYPLTNPLLPYRKPIRVSIFSLAGPSFENNYLHYRLFLLDSVQKIIDSPLFSHLHDGLPIQFDEAKKELGEYDTNKLMARIRLGFPYLARFSSGGFYPSFSKSNAIIFLSEAYFRYQLEDVSLLLASVNQTGKETGKAALLKATAVGMGFFAKIDCGYDIQHIIFPYYLRAYKKLLSEHKFPWIAKIEFPIFNEIQQEQFDSIFEDYDGPTKVYRSTRDVLEFREEEIEKYLPAAINPSDAFALTGNEWGYGSVESMIGNNSSIRFDQVHHMNPLILDPSHHVEAQINKDHGVELTVNPRPQSSSSIKL", "soluble on expression in E. coli": "not soluble"},
      {"sequence": "MSQVSIIIPTLNEAASLGRTLRQLTLLNPPAKEVIVVDGGSEDETIAIAKQNFESFRQATGVQVIFCERRGRSVQMNYGALSATGDILCFLHADTWVPDDLVAVIEKTLAETKVSCGGFISLMTGSQTTRWGISLHNYLKTYYAPLLFKPHLFFQGLRLLFGDQVMFCRRNDFWDCGGFNEELPIMEDGDLCLKLVQKGRIALVNRIVQSSDRRVARWGSWKATAIYLYIGVLWGIGVDANYLKQFYQDIRLEHHHHHH", "soluble on expression in E. coli": "soluble"},
      {"sequence": "MDINTDKYKNITRNLEREMINLNPIQRGGILPTESKKIIYEYWDGYSVCDYCSGRLDQIETPPINEFLEDMSKFLGMDITRPTHGARESKYAVMNSICKEGDYVVLDGNAHYTSYVALERAKLNYEKTDIEEYPTFRVIPESYAEKIDMLEDSKKNIGLILLTHVDGNYGNVADVEKVGKIAKSKGYPFLLNCAYSAGRMPIDGKKLNVDFIAASGHKSMAASGPCGLLSINKKYENEVLETSKVNVLKELQMLGCTSRGIPILSLMASFEHLIERVKKWDLELEKTRKVVNELEPLGFKQIGEKPRNHDIIRFETPILDEIAEKDKRRGFFFYEELKKRGIGGIRRGVTKEFKMSVYGLTNTQVDYVINSMKSIINELR", "soluble on expression in E. coli": "not soluble"},
      {"sequence": "MEGQSGRCKIVVVGDAECGKTALLQVFAKDAYPGSYVPTVFENYTASFEIDKRRIELNMWDTSGSSYYDNVRPLAYPDSDAVLICFDISRPETLDSVLKKWQGETQEFCPNAKVVLVGCKLDMRTDLATLRELSKQRLIPVTHEQGTVLAKQVGAVSYVECSSRSSERSVRDVFHVATVASLGRGHRQLRRTDSRRGMQRSAQLSGRPDRGNEGEIHKDRAKSCNLM", "soluble on expression in E. coli": "soluble"},
      {"sequence": "MHHHHHHSSGRENLYFQGKLPEPQFYAEPHTYEEPGRAGRSFTREIEASRIHIEKIIGSGDSGEVCYGRLRVPGQRDVPVAIKALKAGYTERQRRDFLSEASIMGQFDHPNIIRLEGVVTRGRLAMIVTEYMENGSLDTFLRTHDGQFTIMQLVGMLRGVGAGMRYLSDLGYVHRDLAARNVLVDSNLVCKVSDFGLSRVLEDDPDAAYTTTGGKIPIRWTAPEAIAFRTFSSASDVWSFGVVMWEVLAYGERPYWNMTNRDVISSVEEGYRLPAPMGCPHALHQLMLDCWHKDRAQRPRFSQIVSVLDALIRSPESLRATATVS", "soluble on expression in E. coli": "soluble"},
      {"sequence": "MAFLRSMWGVLSALGRSGAELCTGCGSRLRSPFSFVYLPRWFSSVLASCPKKPVSSYLRFSKEQLPIFKAQNPDAKTTELIRRIAQRWRELPDSKKKIYQDAYRAEWQVYKEEISRFKEQLTPSQIMSLEKEIMDKHLKRKAMTKKKELTLLGKPKRPRSAYNVYVAERFQEAKGDSPQEKLKTVKENWKNLSDSEKELYIQHAKEDETRYHNEMKSWEEQMIEVGRKDLLRRTIKKQRKYGAEEC", "soluble on expression in E. coli": "soluble"},
      {"sequence": "MADYIYIDNSNLYIEGRRVSAVQQRLATNINEAMRDGILDHGYTISFGKLHEFLTGGDLTKIKRAALYGSRPPPNDSIWKSAERAGFELHLEDRNVANKEKKIDTGIATLLTKDAYKHGKPEEDLFVLVAGDKDYVPTLNELRADGYQVEVVFWSHAAKELKDAATRFISLDQHLEHLRF", "soluble on expression in E. coli": "soluble"},
      {"sequence": "MSIEKLKAALPEYAKDIKLNLSSITRSSVLDQEQLWGTLLASAAATRNPQVLADIGAEATDHLSAAARHAALGAAAIMGMNNVFYRGRGFLEGRYDDLRPGLRMNIIANPGIPKANFELWSFAVSAINGCSQCLVAHEHTLRTVGVDREAIFEALKAAAIVSGVAQALATIEALSPS", "soluble on expression in E. coli": "soluble"},
      {"sequence": "MGNKQTIFTEEQLDNYQDCTFFNKKDILKLHSRFYELAPNLVPMDYRKSPIVHVPMSLIIQMPELRENPFKERIVAAFSEDGEGNLTFNDFVDMFSVLCESAPRELKANYAFKIYDFNTDNFICKEDLELTLARLTKSELDEEEVVLVCDKVIEEADLDGDGKLGFADFEDMIAKAPDFLSTFHIRI", "soluble on expression in E. coli": "not soluble"},
      {"sequence": "AFYNITLRTNDGEKKIECNEDEYILDASERQNVELPYSCRGGSCSTCAAKLVEGEVDNDDQSYLDEEQIKKKYILLCTCYPKSDCVIETHKEDELHDM", "soluble on expression in E. coli": "soluble"},
      {"sequence": "MWRIELKHAVNWELKMKFFVLPELPTPDVVESGVWRRAIVLDGRAVAVMAYPESERTIVVEGNFENREWEAVRRKLVEYLGLQNPEELYRFMDGDEKLRMLKNRFYGFGRAGLMSMSVFEGIAKAIIQQQISFVVAEKLAAKIVGRFGDEVEWNGLKFYGFPTQEAILKAGVEGLRECGLSRRKAELIVEIAKEENLEELKEWGEEEAYEYLTSFKGIGRWTAELVLSIALGKNVFPADDLGVRRAVSRLYFNGEIQSAEKVREIARERFGRFARDILFYLFLYDRFFSKKTELV", "soluble on expression in E. coli": "soluble"},
      {"sequence": "MGSDKIHHHHHHMMIDTPAVLIDRERLTANISRMAAHAGAHEIALRPHVKTHKIIEIAQMQVDAGARGITCATIGEAEIFAGAGFTDIFIAYPLYLTDHAVQRLNAIPGEISIGVDSVEMAQATAGLREDIKALIEVDSGHRRSGVTATASELSQIREALGSRYAGVFTFPGHSYGPGNGEQAAADELQALNNSVQRLAGGLTSGGSSPSAQFTDAIDEMRPGVYVFNDSQQITSGACTEKQVAMTVLSTVVSRNVSDRRIILDAGSKILSTDKPAWIDGNGFVLGNPEARISALSEHHATIFWPDKVLLPVIGEQLNIVPNHACNVINLVDEVYVREADGTFRTWKVVARGRNN", "soluble on expression in E. coli": "not soluble"},
      {"sequence": "MSLGTVHARSLEPLPASGPDFGALGEEAEFVEVEPEAKQEILENKDVVVQHVHFDGLGRTKDDIIMYEIRDVFKAKNLIEVMRKSHEAREKLLRLGIFRQVDVLIDTCQGDDALPNGLDVTFEVTELRRLTGSYNTMVGNNEGSMVLGLKLPNLLGRAEKVTFQFSYGTKETSYGLSFFKPQPGNFDRNFSVNLYKVTGQFPWSSLRETDRGVSAEYSFPTWKTSHTVKWEGVWRELGCLSRVASFAVRKESGHSLKSSLSHSMVIDSRNSSILPKRGALLKVNQELAGYTGGDVSFLKEDFELQLNKQLILDTVFSASLWGGMLVPMGDKPSSIADRFYLGGPTSVRGFSMHSVGPQSEGDYLGGEAYWAGGLHLYTPLPFRPGQGGFGELFRTHFFLNAGNLCNLNYGEGPKAHIRKLAECIRWSYGAGIVLRLGNIARLELNYCVPMGVQRGDRICDGVQFGAGIRFLEGHHHHHH", "soluble on expression in E. coli": "not soluble"},
      {"sequence": "MKMEVPQVDLPLEVLAWTKVTEDILNIYKQSCRLQACIFAICTEGTMKVSINLLEYEVHPNDLITLLPGTIIQFREKAEKVSLCFAGFSAKCIGHINLLTTIGNAYPKLIEQPIIPLSENIADYLKEYFALLSHASCDESFKMDSKLADLSLQTILTSIQLMYRNYSGNNHSNRKKEICRKLIQLITEHYKDQRCAQFYADQLGISLQHLSTTVKQVTGKSVLDTIAYIVIIDAKAQLKGTDMTIQEIAYSLNFPNPSFFCKFFRRHVGMSPLEFRNS", "soluble on expression in E. coli": "not soluble"},
      {"sequence": "EIVMTQSPATLSVSPGERATLSCRASQSIGNNLHWYQQKPGQAPRLLIYYASQSISGIPARFSGSGSGTEFTLTISSLQSEDFAVYYCQQSNSWPYTFGGGTKVEIK", "soluble on expression in E. coli": "soluble"},
      {"sequence": "MSPGERFLDWLKRLQGQKAWTAARAAFRRSLAFPPGAYPRAMPYVEPFLAKGDWRQEEREAHYLVAALYALKDGDHQVGRTLARALWEKAQGSASVEKRFLALLEADRDQIAFRLRQAVALVEGGIDFARLLDDLLRWFSPERHVQARWAREYYGAGASEEEKKKEVEA", "soluble on expression in E. coli": "soluble"}
    ]}
  ]
}
